Target: four tandem FKBP12 domains expressed from pBP0722 pSH1-Fpk-Fpk'.LS.Fpk''.Fpk'''.LS.HA
Assay: cell-based or functional assay

IC50 of rapamycin or C7-isopropoxy-rapamycin (the small-molecule heterodimerizer, not of a protein) for loss of SRα-SEAP reporter activity in transfected 293 cells: ~3 nM
B1: FRBL-ΔCaspase-9 expressed from pBP0463 pSH1-FRBL.dCaspase9.T2A (other)
chain: EMWHEGLEEASRLYFGERNVKGMFEVLEPLHAMMERGPQTLKETSFNQAYGRDLMEAQEWCRKYMKSGNVKDLLQAWDLYYHVFRRISKSGGGSGVDDGFGDVGALESLRGNADLAYILSMEPCGHCLIINNVNFCRESGLRTRTGSNIDCEKLRRRFSSLHFMVEVKGDLTAKKMVLALLELARQDHGALDCCVVVILSHGCQASHLQFPGAVYGTDGCPVSVEKIVNIFNGTSCPSLGGKPKLFFIQACGGEQKDHGFEVASTSPEDESPGSNPEPDATPFQEGLRTFDQLDAISSLPTPSDIFVSYSTFPGFVSWRDPKSGSWYVETLDDIFEQWAHSEDLQSLLLRVANAVSVKGIYKQMPGCFNFLRKKLFFKTSASRAEGRGSLLTCGDVEENPGP
